Test results published in patent US20030200558A1 (MONSANTO, published 2003).
Residue numbers refer to the chain shown, from its start.

B1: β-conglycinin β subunit mutant 39335-10 (other)
chain: MDYKDDDDKLKVREDENNPFYLRSSNSFQTLFENQNGRIRLIQRFNKRSPQLENLRDYIIVQFQSKPNTILLPHHADADFIIIILSGRAILTLVNNDDRDSYNLHPGIAQRIPAGTTYYIINPHDHQNLKIIKIAIPVNKPGRYDDFFLSSTQAQQSYLQGFSHNILETSFHSEFEEINRVLLGEEEEQRQQEGVIVELSKEQIRQLSRRAKSSSRKTISSEDEPFNLRSRNPIYSNNFGKIFEITPEKTPQLRDLDIFLSSVDINEGALLLPHFNSKAIVILVINEGDANIEIVGIKEQQQKQKQEEEPLEVQRYRAELSEDDVFVIPAAYPFVVNATSNLNFLAFGINAENNQRNFLAGEKDNVVRQIERQVQELAFPGSAQDVERLLKKQRESYIVDAQPQQKEEGSKGRKGPFPSILGALY
B2: β-conglycinin β subunit mutant 39335-12 (other)
chain: B1 chain with L71I, I108D
B3: β-conglycinin β subunit mutant 39335-13 (other)
chain: B1 chain with I59R, L71I, L104I, I108D, I120L, I121V, I294L, I398F
B4: β-conglycinin β subunit mutant 39335-17 (other)
chain: MDYKDDDDKLKVREDENNPFYLRSSNSFQTLFENQNGRIRLIQRFNKRSPQLENLRDYRIVQIQSKPNTIILPHHADADFIIIILSGRAILTLVNNDDRDSYNIHPGDAIRIPAGTTYYIINPHDHQNLKIIKIAIPVNKPGRYDDFFLSSTQAQQSYLQGFSHNILETSFHSEFEEINRVLLGEEEEQRQQEGVIVELSKEQIRQLSRRAKSSSRKTISSEDEPFNLRSRNPIYSNNFGKIFEITPEKTPQLRDLDIFISSVDINEGALILPHFNSKAIVILVINEGDANIEIVGIKEQQQKQKQEEEPLEVQRYRAELSEDDIIVIPAAYPFVVNATSNLNIIAIGINAENNQRNFLAGEKDNVVRQIERQVQELAFPGSAQDVERLLKKQRESYFVDAQPQQKEEGSKGRKGPFPSILGALY
B5: β-conglycinin β subunit mutant 39335-19 (other)
chain: B4 chain with L91I
B6: β-conglycinin β subunit mutant 39335-20 (other)
chain: B4 chain with L91I, I325V, I326F, I344F, I345L, I347F
B7: β-conglycinin β subunit mutant 39335-21 (other)
chain: B1 chain with I59R, F63I, L71I, L104I, I108D, I242F, L271I, V336I, I398F
B8: β-conglycinin β subunit mutant 39335-22 (other)
chain: B4 chain with L91I, L93I, V336I, I344F, I345L, I347F
B9: β-conglycinin β subunit mutant 39335-25 (other)
chain: B4 chain with I63F, L91I, I325V, I326F, I344F, I345L, I347F
B10: β-conglycinin β subunit mutant 39335-26 (other)
chain: B4 chain with I63F, I110Q, I242F, I260L, I271L, I294L
B11: β-conglycinin β subunit mutant 39335-27 (other)
chain: B4 chain with L91I, V336I, I344F, I345L, I347F
B12: β-conglycinin β subunit mutant 39335-28 (other)
chain: B4 chain with I63F, L91I, I325V, I326F
B13: β-conglycinin β subunit mutant 39335-29 (other)
chain: B4 chain with I63F, I110Q, I325V, I326F
B14: β-conglycinin β subunit mutant 39335-31 (other)
chain: B4 chain with I63F, L91I, L93I, V336I, I344F, I345L, I347F
B15: β-conglycinin β subunit mutant 39335-36 (other)
chain: B4 chain with I63F, I242F, I325V, I326F, V336I, I344F, I345L, I347F
B16: β-conglycinin β subunit mutant 39335-38 (other)
chain: B1 chain with I59R, L71I, L104I, I108D, I242F, L271I, I294L, I398F
B17: β-conglycinin β subunit mutant 39335-42 (other)
chain: B4 chain with I260L, I271L, I294L, I344F, I345L, I347F
B18: β-conglycinin β subunit mutant 39335-43 (other)
chain: B4 chain with I63F, I260L, I271L, I294L
B19: β-conglycinin β subunit mutant 39335-46 (other)
chain: B4 chain with L91I, L93I, I110Q, I242F, I271L, I294L
B20: β-conglycinin β subunit mutant 39335-49 (other)
chain: B4 chain with I63F, I110Q, I242F, I271L, I294L
B21: β-conglycinin β subunit mutant 39335-51 (other)
chain: B4 chain with L91I, L93I, I242F, I271L
B22: β-conglycinin β subunit mutant 39335-56 (other)
chain: B4 chain with L91I, L93I, I271L, V336I, I344F, I347F, F398I
B23: β-conglycinin β subunit mutant 39335-57 (other)
chain: B4 chain with L91I, L93I, I242F, I271L, I326F, V336I, I344F, I347F
B24: β-conglycinin β subunit mutant 39335-64 (other)
chain: B4 chain with L91I, L93I, I242F, L272I, V336I, I344F, I345L, I347F
B25: β-conglycinin β subunit mutant 39335-66 (other)
chain: B1 chain with I59R, L71I, L104I, I108D, I294L
B26: β-conglycinin β subunit mutant 39335-70 (other)
chain: B4 chain with L52I, I63F, L91I, L93I, I110Q, I242F, L253I, I260L, I271L, I294L
B27: β-conglycinin β subunit mutant 39335-71 (other)
chain: B4 chain with L52I, I63F, I110Q, I242F, L253I, I260L, I271L, I294L
B28: β-conglycinin β subunit mutant 39335-74 (other)
chain: B1 chain with I59R, L71I, L104I, I108D, I242F, I294L
B29: β-conglycinin β subunit mutant 39335-1 (other)
chain: MDYKDDDDKLKVREDENNPFYLRSSNSFQTLFENQNGRIRLIQRFNKRSPQLENLRDYRIVQFQSKPNTIILPHHADADFLLFVLSGRAILTLVNNDDRDSYILHPGDAQRIPAGTTYYLVNPHDHQNLKIIILAIPVNKPGRYDDFFLSSTQAQQSYLQGFSHNILETSFHSEFEEINRVLLGEEEEQRQQEGIIVELSKEQIRQLSRRAKSSSRKTISSEDEPFNLRSRNPIYSNNFGKIFEITPEKIIQLRDLDIFLSSVDINEGALLLPHFNSKAIVIIIINEGDANIEIVGIKEQQQKQKQEEEILEVQRYRAELSEDDVFVIPAAYPIVVNATSNINFLAFGINAENIQRNFLAGEKDNVVRQIERQVQELAFPGSAQDVERLLKKQRESYIVDAQPQQKEEGSKGRKGPFPSILGALY
B30: β-conglycinin β subunit mutant 39335-2 (other)
chain: B29 chain with R59I, L81I, I242F, I283L, I284V, I294L, I310P
B31: β-conglycinin β subunit mutant 39335-3 (other)
chain: MDYKDDDDKLKVREDENIPFYLRSSNSFQTLFENQNGRIRLIQRFNKRSPQLENLRDYIIVQFQSKPNTILLPIHADADFLLFVLSGRAILTLVNNDDRDSYNLHPGDAQRIPAGTTYYLVNPHDHQNLKIIKLAIIVNKPGRYDDFFLSSTQAQQSYLQGFSHNILETSFHSEFEEINRVLLGEEEEQRQQEGIIVELSKEQIRQLSRRAKSSSRKTISSEDEPFNLRSRNIIYSNNFGKFFEITPEKTPQLRDLDIFLSSVDINEGALLLPHFNSKAIVILVIIEGDANIELVGIKEQQQKQKQEEEPLEVQRYRAELSEDDVFVIPAAYPFVVNATSNLNFLAFGINAENNQRNFLAGEKDNVVRQIERQVQELAFPGSAQDVERLLKKQRESYFVDAQPQQKEEGSKGRKGPFPSILGALY
B32: β-conglycinin β subunit mutant 39335-6 (other)
chain: B31 chain with D108I, P123I, T250I, P251I

Biological target: the molecule itself
Experiment: sucrose gradient sedimentation, anti-FLAG western (self-assembly)

Binding result, no binding:
B1
B2
B3
B4
B5
B6
B7
B8
B9
B10
B11
B12
B13
B14
B15
B16
B17
B18
B19
B20
B21
B22
B23
B24
B25
B26
B27
B28
B29
B30
B31
B32
